{"source": "the supplement of paper PMC10724198", "data": [{"system": "Saccharomyces cerevisiae", "assay": "protein stability index of tFT-peptide fusion in deletion strain of DAS1 (PSI (0-1 scale)); higher = more stable (slower turnover)", "method": "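MPS profiling in S. cerevisiae of two library types built from selected 12-aa C-degron peptides (IN1, IN2, LN1, LN3, VN2, R1-R5, W1-W3, Atg1 and Rpa12 C-termini): saturation mutagenesis libraries and C-terminal +1 capping libraries (13 aa). Each peptide is fused to the C-terminus of a sfGFP-mCherry timer, after a GGGS linker. Cells are FACS-sorted into 8 mCherry/sfGFP bins and sequenced. PSI runs from 0 (unstable) to 1 (stable), measured once in wild type and in the das1Δ or doa10Δ background.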", "values": [{"sequence": "KKHHKGQKQKIN", "protein stability index": 0.588}, {"sequence": "KKHKKFQKQKIN", "protein stability index": 0.599}, {"sequence": "KKHKKGGKQKIN", "protein stability index": 0.653}, {"sequence": "KKHKKGKKQKIN", "protein stability index": 0.579}, {"sequence": "KKHKKGQGQKIN", "protein stability index": 0.59}, {"sequence": "KKHKKGQKHKIN", "protein stability index": 0.588}, {"sequence": "KKHKKGQKQCIN", "protein stability index": 0.585}, {"sequence": "KKHKKGQKQKCN", "protein stability index": 0.584}, {"sequence": "KKHKKGQKQKIC", "protein stability index": 0.61}, {"sequence": "KKHKKGQKQKID", "protein stability index": 0.611}, {"sequence": "KKHKKGQKQKINS", "protein stability index": 0.668}, {"sequence": "KKHKKGQKQKPN", "protein stability index": 0.722}, {"sequence": "KKHKKGQKQLIN", "protein stability index": 0.627}, {"sequence": "KKHKKGQKQTIN", "protein stability index": 0.571}, {"sequence": "KKHKKGQKWKIN", "protein stability index": 0.612}, {"sequence": "KKHKKGQSQKIN", "protein stability index": 0.676}, {"sequence": "KKHKKGTKQKIN", "protein stability index": 0.608}, {"sequence": "KKHKKGWKQKIN", "protein stability index": 0.682}, {"sequence": "KKHKKGYKQKIN", "protein stability index": 0.607}, {"sequence": "KKHKKPQKQKIN", "protein stability index": 0.659}, {"sequence": "KKHKMGQKQKIN", "protein stability index": 0.623}, {"sequence": "KKKKKGQKQKIN", "protein stability index": 0.567}, {"sequence": "KKMKKGQKQKIN", "protein stability index": 0.758}, {"sequence": "KMHKKGQKQKIN", "protein stability index": 0.857}, {"sequence": "LHILRQKMNHQN", "protein stability index": 0.662}, {"sequence": "LKILIQKMNHQN", "protein stability index": 0.695}, {"sequence": "LKILRGKMNHQN", "protein stability index": 0.674}, {"sequence": "LKILRQKMCHQN", "protein stability index": 0.68}, {"sequence": "LKILRQKMGHQN", "protein stability index": 0.672}, {"sequence": "LKILRQKMNGQN", "protein stability index": 0.659}, {"sequence": "LKILRQKMNHPN", "protein stability index": 0.688}, {"sequence": "LKILRQKMNHQI", "protein stability index": 0.67}, {"sequence": "LKILRQKMNHQL", "protein stability index": 0.67}, {"sequence": "LKILRQKMNHQNG", "protein stability index": 0.662}, {"sequence": "LKILRQKMNHQNI", "protein stability index": 0.685}, {"sequence": "LKILRQKMNHQNM", "protein stability index": 0.592}, {"sequence": "LKILRQKMNHQNW", "protein stability index": 0.67}, {"sequence": "LKILRQKMNHQP", "protein stability index": 0.677}, {"sequence": "LKILRQKMNNQN", "protein stability index": 0.707}, {"sequence": "LKILRQKMTHQN", "protein stability index": 0.688}, {"sequence": "LKILRQKQNHQN", "protein stability index": 0.64}, {"sequence": "LKILRQKWNHQN", "protein stability index": 0.662}, {"sequence": "LKILRQKYNHQN", "protein stability index": 0.7}, {"sequence": "LKILRQQMNHQN", "protein stability index": 0.584}, {"sequence": "LKINRQKMNHQN", "protein stability index": 0.682}, {"sequence": "LKIRRQKMNHQN", "protein stability index": 0.687}, {"sequence": "LKITRQKMNHQN", "protein stability index": 0.674}, {"sequence": "LVILRQKMNHQN", "protein stability index": 0.675}, {"sequence": "LVVSLSCVACIN", "protein stability index": 0.0593}, {"sequence": "LVVYASCVACIN", "protein stability index": 0.0371}, {"sequence": "LVVYFSCVACIN", "protein stability index": 0.0148}, {"sequence": "LVVYLHCVACIN", "protein stability index": 0.0327}, {"sequence": "LVVYLRCVACIN", "protein stability index": 0.0318}, {"sequence": "LVVYLSCCACIN", "protein stability index": 0.138}, {"sequence": "LVVYLSCIACIN", "protein stability index": 0.0218}, {"sequence": "LVVYLSCLACIN", "protein stability index": 0.0537}, {"sequence": "LVVYLSCVACIND", "protein stability index": 0.0356}, {"sequence": "LVVYLSCVACING", "protein stability index": 0.0326}, {"sequence": "LVVYLSCVACINN", "protein stability index": 0.037}, {"sequence": "LVVYLSCVACIR", "protein stability index": 0.0325}, {"sequence": "LVVYLSCVACIY", "protein stability index": 0.0359}, {"sequence": "LVVYLSCVARIN", "protein stability index": 0.0375}, {"sequence": "LVVYLSCVATIN", "protein stability index": 0.0278}, {"sequence": "LVVYLSCVAVIN", "protein stability index": 0.0276}, {"sequence": "LVVYLSCVCCIN", "protein stability index": 0.415}, {"sequence": "LVVYLSCVVCIN", "protein stability index": 0.0986}, {"sequence": "LVVYLSKVACIN", "protein stability index": 0.38}, {"sequence": "LVVYLSTVACIN", "protein stability index": 0.161}, {"sequence": "LVVYLSWVACIN", "protein stability index": 0.0348}, {"sequence": "LVVYPSCVACIN", "protein stability index": 0.337}, {"sequence": "LVVYVSCVACIN", "protein stability index": 0.0341}, {"sequence": "LVVYWSCVACIN", "protein stability index": 0.0704}, {"sequence": "NLIQPLPVQFLN", "protein stability index": 0.582}, {"sequence": "NRWRVGLWRGAS", "protein stability index": 0.685}, {"sequence": "PDHRNHLIKLLN", "protein stability index": 0.589}, {"sequence": "PDKANHLIKLLN", "protein stability index": 0.594}, {"sequence": "PDKGNHLIKLLN", "protein stability index": 0.635}, {"sequence": "PDKINHLIKLLN", "protein stability index": 0.578}, {"sequence": "PDKRDHLIKLLN", "protein stability index": 0.599}, {"sequence": "PDKRMHLIKLLN", "protein stability index": 0.592}, {"sequence": "PDKRNALIKLLN", "protein stability index": 0.629}, {"sequence": "PDKRNDLIKLLN", "protein stability index": 0.626}, {"sequence": "PDKRNHLAKLLN", "protein stability index": 0.547}, {"sequence": "PDKRNHLGKLLN", "protein stability index": 0.593}, {"sequence": "PDKRNHLIKGLN", "protein stability index": 0.619}, {"sequence": "PDKRNHLIKLGN", "protein stability index": 0.605}, {"sequence": "PDKRNHLIKLLA", "protein stability index": 0.57}, {"sequence": "PDKRNHLIKLLC", "protein stability index": 0.577}, {"sequence": "PDKRNHLIKLLF", "protein stability index": 0.576}, {"sequence": "PDKRNHLIKLLNQ", "protein stability index": 0.667}, {"sequence": "PDKRNHLIKLLNR", "protein stability index": 0.668}, {"sequence": "PDKRNHLIKLLNV", "protein stability index": 0.659}, {"sequence": "PDKRNHLIKLLS", "protein stability index": 0.653}, {"sequence": "PDKRNHLTKLLN", "protein stability index": 0.584}, {"sequence": "PDKRNHSIKLLN", "protein stability index": 0.631}, {"sequence": "PDKRNHTIKLLN", "protein stability index": 0.582}, {"sequence": "PDKRNLLIKLLN", "protein stability index": 0.608}, {"sequence": "PDKRNNLIKLLN", "protein stability index": 0.589}, {"sequence": "PDKRNSLIKLLN", "protein stability index": 0.723}, {"sequence": "PDKRNTLIKLLN", "protein stability index": 0.599}, {"sequence": "PDKVNHLIKLLN", "protein stability index": 0.658}, {"sequence": "PLKRNHLIKLLN", "protein stability index": 0.622}, {"sequence": "PPLAASFWRVVG", "protein stability index": 0.673}, {"sequence": "PQKRNHLIKLLN", "protein stability index": 0.597}, {"sequence": "PSCAASFWRVVG", "protein stability index": 0.691}, {"sequence": "PSEAASFWRVVG", "protein stability index": 0.702}, {"sequence": "PSLAANFWRVVG", "protein stability index": 0.689}, {"sequence": "PSLAASAWRVVG", "protein stability index": 0.666}, {"sequence": "PSLAASFWEVVG", "protein stability index": 0.712}, {"sequence": "PSLAASFWRCVG", "protein stability index": 0.674}, {"sequence": "PSLAASFWRVSG", "protein stability index": 0.684}, {"sequence": "PSLAASFWRVVGE", "protein stability index": 0.668}, {"sequence": "PSLAASFWRVVGG", "protein stability index": 0.682}, {"sequence": "PSLAASFWRVVGM", "protein stability index": 0.703}, {"sequence": "PSLAASFWRVYG", "protein stability index": 0.691}, {"sequence": "PSLAASHWRVVG", "protein stability index": 0.692}, {"sequence": "PSLAASNWRVVG", "protein stability index": 0.692}]}]}
